Assay results published in patent publication US20100048462A1, “TRUNCATED PTH PEPTIDES WITH A CYCLIC CONFORMATION” (Zealand Pharma A/S, priority 2006, published 2010).
Bridge positions count the residues as written; N and C are the ends. Square brackets hold non-standard residues; d marks the D form. hArg = N=C(N)NCCCC[C@H](N)C(=O)O; Ac5c = NC1(C(=O)O)CCCC1; Dab = NCC[C@H](N)C(=O)O; Aib = CC(C)(N)C(=O)O

How the values were obtained:
CYP2D6 = CYP2D6 (Homo sapiens, UniProt P10635); assay: cell-based or functional assay
Chain of CYP2D6 (P10635 whole entry): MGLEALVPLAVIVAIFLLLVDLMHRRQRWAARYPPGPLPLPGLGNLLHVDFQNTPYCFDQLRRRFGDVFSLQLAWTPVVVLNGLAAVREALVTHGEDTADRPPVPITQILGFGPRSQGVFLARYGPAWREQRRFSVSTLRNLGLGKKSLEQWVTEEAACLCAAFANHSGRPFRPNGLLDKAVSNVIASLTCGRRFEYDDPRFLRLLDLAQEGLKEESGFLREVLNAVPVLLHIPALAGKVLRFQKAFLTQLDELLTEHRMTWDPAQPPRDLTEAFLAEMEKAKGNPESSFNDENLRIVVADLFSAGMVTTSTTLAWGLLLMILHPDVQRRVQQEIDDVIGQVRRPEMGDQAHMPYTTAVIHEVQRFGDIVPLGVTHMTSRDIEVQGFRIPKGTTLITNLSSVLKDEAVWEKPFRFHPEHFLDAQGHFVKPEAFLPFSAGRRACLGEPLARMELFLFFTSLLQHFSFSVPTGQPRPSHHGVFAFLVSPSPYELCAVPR

Saos-2 PTH1R = Saos-2 PTH1R (UniProt Q03431); assay: cell-based or functional assay
Chain of Saos-2 PTH1R (Q03431 27-593 limits assumed): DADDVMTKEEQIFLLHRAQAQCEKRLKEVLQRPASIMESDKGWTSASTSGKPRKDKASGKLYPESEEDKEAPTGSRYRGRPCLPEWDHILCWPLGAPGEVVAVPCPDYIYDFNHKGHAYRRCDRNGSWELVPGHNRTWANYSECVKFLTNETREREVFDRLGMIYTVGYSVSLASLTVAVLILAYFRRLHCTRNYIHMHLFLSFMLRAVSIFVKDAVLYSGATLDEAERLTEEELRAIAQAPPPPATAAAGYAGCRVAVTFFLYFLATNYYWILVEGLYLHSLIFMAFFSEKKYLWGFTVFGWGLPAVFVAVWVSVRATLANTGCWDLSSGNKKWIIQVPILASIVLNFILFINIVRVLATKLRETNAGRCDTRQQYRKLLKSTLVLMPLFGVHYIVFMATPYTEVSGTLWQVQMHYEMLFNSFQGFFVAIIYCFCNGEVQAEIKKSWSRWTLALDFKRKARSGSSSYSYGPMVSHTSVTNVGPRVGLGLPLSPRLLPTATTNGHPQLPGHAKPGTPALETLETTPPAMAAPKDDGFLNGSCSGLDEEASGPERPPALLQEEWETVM

H-Ac5c-Val-Aib-Glu-Ile-Gln-Leu-Met-His-Glu-Har-Ala-Lys( )-Trp-Leu-Asn-Asp( )-NH2 (peptide)
CYP2D6 activity (% of vehicle), dextrorphan formation rate in human liver microsomes, 10 µM peptide (CYP2D6): 83 % of vehicle | Emax, cAMP efficacy assay in Saos-2 cells (24T, trifluoroacetate salt) (relative to control (SEQ ID NO: 32)) (Saos-2 PTH1R): 1.4 | pEC50, cAMP efficacy assay in Saos-2 cells (24T, trifluoroacetate salt) (Saos-2 PTH1R): 6.9 -log(M)

H-Ac5c-Val-Aib-Glu-Ile-Gln-Leu-Nle-His-Gln-Har-Ala-Lys( )-Trp-Leu-Asn-Asp( )-NH2 (peptide)
CYP2D6 activity (% of vehicle), dextrorphan formation rate in human liver microsomes, 10 µM peptide (CYP2D6): 99 % of vehicle | Emax, cAMP efficacy assay in Saos-2 cells (20T, trifluoroacetate salt) (relative to control (SEQ ID NO: 32)) (Saos-2 PTH1R): 0.97 | pEC50, cAMP efficacy assay in Saos-2 cells (20T, trifluoroacetate salt) (Saos-2 PTH1R): 8.1 -log(M)

H-Ac5c-Val-Aib-Glu-Ile-Glu-Leu-Met-His-Gln-Har-Ala-Lys( )-Trp-Leu-Asn-Asp( )-NH2 (peptide)
CYP2D6 activity (% of vehicle), dextrorphan formation rate in human liver microsomes, 10 µM peptide (CYP2D6): 89 % of vehicle | Emax, cAMP efficacy assay in Saos-2 cells (18T, trifluoroacetate salt) (relative to control (SEQ ID NO: 32)) (Saos-2 PTH1R): 1.24 | pEC50, cAMP efficacy assay in Saos-2 cells (18T, trifluoroacetate salt) (Saos-2 PTH1R): 7.29 -log(M)

H-Ser-Val-Ser-Glu-Ile-Gln-Leu-Met-His-Asn-Leu-Gly-Lys( )-His-Leu-Asn-Asp( )-NH2 (peptide)
CYP2D6 activity (% of vehicle), dextrorphan formation rate in human liver microsomes, 10 µM peptide (CYP2D6): 79 % of vehicle

H-Ser-Val-Ser-Glu-Ile-Gln-Leu-Met-His-Asn-Leu-Gly-Lys-His-Leu-Asn-Ser-NH2 (peptide)
CYP2D6 activity (% of vehicle), dextrorphan formation rate in human liver microsomes, 10 µM peptide (CYP2D6): 41 % of vehicle

B1: H-Ac5c-Val-Aib-Glu-Ile-Gln-Leu-Leu-His-Gln-Har-Ala-Dab( )-Trp-Leu-Asn-Asp( )-NH2 (peptide)
chain: H-[Ac5c]V[Aib]EIQLLHQ[hArg]A[Dab]WLND-NH2
modifications: lactam 13-17
SMILES: CC[C@H](C)[C@H](NC(=O)[C@H](CCC(=O)O)NC(=O)C(C)(C)NC(=O)[C@@H](NC(=O)C1(N)CCCC1)C(C)C)C(=O)N[C@@H](CCC(N)=O)C(=O)N[C@@H](CC(C)C)C(=O)N[C@@H](CC(C)C)C(=O)N[C@@H](Cc1c[nH]cn1)C(=O)N[C@@H](CCC(N)=O)C(=O)N[C@@H](CCCCNC(=N)N)C(=O)N[C@@H](C)C(=O)N[C@H]1CCNC(=O)C[C@@H](C(N)=O)NC(=O)[C@H](CC(N)=O)NC(=O)[C@H](CC(C)C)NC(=O)[C@H](Cc2c[nH]c3ccccc23)NC1=O
CYP2D6 activity (% of vehicle), dextrorphan formation rate in human liver microsomes, 10 µM peptide (CYP2D6): 82 % of vehicle | Emax, cAMP efficacy assay in Saos-2 cells (41T, trifluoroacetate salt) (relative to control (SEQ ID NO: 32)) (Saos-2 PTH1R): 0.99 | pEC50, cAMP efficacy assay in Saos-2 cells (41T, trifluoroacetate salt) (Saos-2 PTH1R): 7.19 -log(M)

B2: H-Ac5c-V-Aib-…-NH2 (peptide)
chain: H-[Ac5c]V[Aib]EIQLMHNLGKHLNS-NH2
SMILES: CC[C@H](C)[C@H](NC(=O)[C@H](CCC(=O)O)NC(=O)C(C)(C)NC(=O)[C@@H](NC(=O)C1(N)CCCC1)C(C)C)C(=O)N[C@@H](CCC(N)=O)C(=O)N[C@@H](CC(C)C)C(=O)N[C@@H](CCSC)C(=O)N[C@@H](Cc1c[nH]cn1)C(=O)N[C@@H](CC(N)=O)C(=O)N[C@@H](CC(C)C)C(=O)NCC(=O)N[C@@H](CCCCN)C(=O)N[C@@H](Cc1c[nH]cn1)C(=O)N[C@@H](CC(C)C)C(=O)N[C@@H](CC(N)=O)C(=O)N[C@@H](CO)C(N)=O
CYP2D6 activity (% of vehicle), dextrorphan formation rate in human liver microsomes, 10 µM peptide (CYP2D6): 48 % of vehicle | Emax, cAMP efficacy assay in Saos-2 cells (35T, trifluoroacetate salt) (relative to control (SEQ ID NO: 32)) (Saos-2 PTH1R): 1.2 | pEC50, cAMP efficacy assay in Saos-2 cells (35T, trifluoroacetate salt) (Saos-2 PTH1R): 5.09 -log(M)
